Reference: US20230381281A1, “PHARMACEUTICAL COMPOSITION COMPRISING GLUCAGON/GLP-1/GIP TRIPLE AGONIST OR LONG-ACTING CONJUGATE THEREOF FOR PREVENTING OR TREATING LUPUS-RELATED DISEASES” (HANMI PHARM. CO., LTD., priority 2020, published 2023)
Bridge positions count the residues as written; N and C are the ends. Square brackets hold non-standard residues; d marks the D form. Ends that are not written are not given here. * marks the point of attachment. Acetyl(2-(4-imidazolyl)) = O=C(Cc1c[nH]cn1)*; Aib = CC(C)(N)C(=O)O

T1: human GIP receptor (human, UniProt P48546 22-466)
T1 sequence (looked up): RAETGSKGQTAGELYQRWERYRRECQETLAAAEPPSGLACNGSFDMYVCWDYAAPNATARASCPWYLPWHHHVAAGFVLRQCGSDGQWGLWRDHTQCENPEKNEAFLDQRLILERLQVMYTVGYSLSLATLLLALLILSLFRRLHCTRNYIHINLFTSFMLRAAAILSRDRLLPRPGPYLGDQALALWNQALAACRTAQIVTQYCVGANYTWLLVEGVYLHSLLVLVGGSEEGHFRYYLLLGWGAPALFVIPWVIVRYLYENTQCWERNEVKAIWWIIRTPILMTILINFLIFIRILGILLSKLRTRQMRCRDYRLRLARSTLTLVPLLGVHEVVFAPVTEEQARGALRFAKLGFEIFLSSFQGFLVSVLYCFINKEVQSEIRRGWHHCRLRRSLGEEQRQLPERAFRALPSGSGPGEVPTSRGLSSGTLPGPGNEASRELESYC


Assays:
Experiment in all cases: cell-based or functional assay
human GLP-1 receptor = human GLP-1 receptor (human, UniProt P43220 24-463)
human GCG receptor = human GCG receptor (human, UniProt P47871 26-477)
human GCG receptor, sequence (P47871 26-477): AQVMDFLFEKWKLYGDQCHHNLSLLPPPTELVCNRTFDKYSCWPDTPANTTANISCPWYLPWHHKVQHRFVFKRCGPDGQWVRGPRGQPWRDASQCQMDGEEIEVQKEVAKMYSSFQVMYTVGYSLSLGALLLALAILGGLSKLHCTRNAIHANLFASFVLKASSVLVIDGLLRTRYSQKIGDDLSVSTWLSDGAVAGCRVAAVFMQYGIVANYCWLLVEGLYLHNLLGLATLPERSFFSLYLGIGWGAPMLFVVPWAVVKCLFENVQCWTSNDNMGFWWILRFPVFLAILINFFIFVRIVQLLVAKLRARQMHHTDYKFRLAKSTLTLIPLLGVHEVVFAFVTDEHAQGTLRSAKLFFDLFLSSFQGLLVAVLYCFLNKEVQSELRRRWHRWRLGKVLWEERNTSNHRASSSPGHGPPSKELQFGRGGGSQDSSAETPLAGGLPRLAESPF

human GIP receptor = molecular target: T1, human GIP receptor

Binder | In vitro activity compared to native peptide (%) vs GLP-1 (human GLP-1 receptor) [%] | In vitro activity compared to native peptide (%) vs Glucagon (human GCG receptor) [%] | In vitro activity compared to native peptide (%) vs GIP (human GIP receptor) [%]
H[Aib]QGTFTSDVSSYLLGQAAKQFIAWLVKGGGPSSGAPPPSC [Triple agonist of SEQ ID NO: 3] | 1.8 | < 0.1 | < 0.1
H[Aib]QGTFTSDVSSYLDGQAQKEFIAWLVKGC [Triple agonist of SEQ ID NO: 2] | 5.9 | < 0.1 | < 0.1
{Acetyl(2-(4-imidazolyl))}-[Aib]QGTFTSDYSIAMDEIHQKDFVNWLLNTKC (bridge 15-19) [Triple agonist of SEQ ID NO: 94] | 0.5 | < 0.1 | < 0.1
Y[Aib]QGTFTSDYSKALDEKAAKDFVNWLLDQHPSSGQPPPSC (bridge 16-20) [Triple agonist of SEQ ID NO: 102] | 23.3 | 29.5 | 58
{Acetyl(2-(4-imidazolyl))}-GEGTFISDYSIQLDEIAVQDFVEWLLAQKPSSGAPPPSHG [Triple agonist of SEQ ID NO: 13] | < 0.1 | < 0.1 | < 0.1
{Acetyl(2-(4-imidazolyl))}-GEGTFTSDLSKYLDSRRQQLFVQWLKAGGPSSGAPPPSHG [Triple agonist of SEQ ID NO: 11] | 1.4 | < 0.1 | < 0.1
Y[Aib]QGTFTSDYSKYLDECRAKEFVQWLLAQKGKKNDWKHNIT (bridge 16-20) [Triple agonist of SEQ ID NO: 23] | 4.01 | 9.3 | < 0.1
{Acetyl(2-(4-imidazolyl))}-GQGTFTSDLSIQYEEEAQQDFVEWLKDTGPSSGAPPPSHG [Triple agonist of SEQ ID NO: 20] | < 0.1 | < 0.1 | < 0.1
Y[Aib]QGTFTSDYSKYLDECRAKEFVQWLKNGGPSSGAPPPS (bridge 16-20) [Triple agonist of SEQ ID NO: 24] | 41.2 | 9.3 | < 0.1
{Acetyl(2-(4-imidazolyl))}-GQGTFTSDLSKQMDEERAREFIEWLLAQKPSSGAPPPSHG [Triple agonist of SEQ ID NO: 17] | 0.2 | < 0.1 | < 0.1
{Acetyl(2-(4-imidazolyl))}-[Aib]QGTFTSDYSKYLDEKRQKEFVNWLLAQKC (bridge 15-19) [Triple agonist of SEQ ID NO: 93] | 5.7 | 0.3 | 0.7
{Acetyl(2-(4-imidazolyl))}-GQGTFTSDLSKQMDSEAQQLFIEWLKNGGPSSGAPPPSHG [Triple agonist of SEQ ID NO: 16] | 2.1 | < 0.1 | < 0.1
Y[Aib]QGTFTSDYSKYLDEKRAKEFVQWLLDCHPSSGQPPPS (bridge 16-20) [Triple agonist of SEQ ID NO: 97] | 10.5 | 62.8 | 2.6
Y[Aib]QGTFTSDYSKCLDEKRAKEFVQWLLDHHPSSGQPPPS (bridge 16-20) [Triple agonist of SEQ ID NO: 22] | 20.1 | 140 | 59.7
Y[Aib]QGTFTSDYSKYLDECRAKEFVQWLLDHHPSSGQPPPS (bridge 16-20) [Triple agonist of SEQ ID NO: 21] | 17.8 | 267 | 22.7
{Acetyl(2-(4-imidazolyl))}-[Aib]QGTFTSDYSIAMDEIHQKDFVNWLLAQKC (bridge 15-19) [Triple agonist of SEQ ID NO: 92] | 0.8 | < 0.1 | 0.4
Y[Aib]QGTFTSDYSKYLDEKRAKEFVQWLLCHHPSSGQPPPS (bridge 16-20) [Triple agonist of SEQ ID NO: 95] | 2.1 | 0.4 | < 0.1
{Acetyl(2-(4-imidazolyl))}-GQGTFTSDLSKQMDSERAREFIEWLKNTGPSSGAPPPSHG [Triple agonist of SEQ ID NO: 18] | < 0.1 | < 0.1 | < 0.1
Y[Aib]QGTFTSDYSKALDEKAAKEFVQWLLDQHPSSGQPPPSC (bridge 16-20) [Triple agonist of SEQ ID NO: 100] | 42.2 | 12.7 | 118
{Acetyl(2-(4-imidazolyl))}-GQGTFTSDYSIQLDEIAVRDFVEWLKNGGPSSGAPPPSHG [Triple agonist of SEQ ID NO: 14] | 28 | < 0.1 | < 0.1
{Acetyl(2-(4-imidazolyl))}-[Aib]EGTFTSDYSIAMDEIHQKDFVDWLLAEKC (bridge 15-19) [Triple agonist of SEQ ID NO: 91] | 31.9 | 16.8 | 0.3
{Acetyl(2-(4-imidazolyl))}-GQGTFTSDLSIQYDSEHQRDFIEWLKDTGPSSGAPPPSHG [Triple agonist of SEQ ID NO: 19] | < 0.1 | < 0.1 | < 0.1
Y[Aib]QGTFTSDYSKALDEKAAKEFVNWLLDHHPSSGQPPPSC (bridge 16-20) [Triple agonist of SEQ ID NO: 98] | 28.1 | 8.2 | 47.1
{Acetyl(2-(4-imidazolyl))}-GEGTFISDLSKYMDEQAVQLFVEWLMAGGPSSGAPPPSHG [Triple agonist of SEQ ID NO: 12] | 0.4 | < 0.1 | < 0.1
Y[Aib]QGTFTSDYSKYLDEKRAKEFVQWLLDHCPSSGQPPPS (bridge 16-20) [Triple agonist of SEQ ID NO: 96] | 34.4 | 195 | 5.2
H[Aib]QGTFTSDCSKYLDERAAQDFVQWLLDGGPSSGAPPPS [Triple agonist of SEQ ID NO: 25] | 82.6 | 0.1 | < 0.1
H[Aib]QGTFTSDCSKYLDSRAAQDFVQWLLDGGPSSGAPPPS [Triple agonist of SEQ ID NO: 26] | 64.5 | 0.2 | < 0.1
Y[Aib]QGTFTSDYSKALDEKAAKDFVNWLLDHHPSSGQPPPSC (bridge 16-20) [Triple agonist of SEQ ID NO: 99] | 20.9 | 14.9 | 57.7
H[Aib]QGTFTSDVSKYLDGQAAQEFVAWLLAGGGPSSGAPPPSC [Triple agonist of SEQ ID NO: 10] | 46 | < 0.1 | < 0.1
